Positions count from the first letter of the chain named. No end group written: not given here. *: point of attachment. Biotin = O=C1N[C@H]2[C@H](CS[C@H]2CCCCC(=O)*)N1; linker = not defined here
Legend:
[1] = target: T1, biotinylated 15-mer peptide corresponding to the CD3ε N-terminus (human, UniProt P07766 22-36, limits assumed, not fully specified; reading uncertain); assay: Luminex bead assay, peptide on streptavidin beads
T1 construct: domain: N-terminal 15-mer; Immobilised on streptavidin-conjugated Luminex beads; The text says 'peptides' in the plural, so more than one overlapping N-terminal 15-mer may be meant; also called N-terminal 15-mer; biotinylated N-terminal 15-mer
T1 peptide (looked up): {Biotin-linker}-QDGNEEMGGITQTPY
Method: A set of experiments was performed to map the epitope recognized by the anti-CD3ε antibodies. In these experiments, the anti-CD3ε antibodies were assessed for binding to a collection of overlapping 15-mer peptides spanning amino acids 1-27 of human CD3ε protein using a Luminex bead assay. Control CD3 proteins, control peptides, or the test peptides were immobilized on Luminex beads and incubated with a panel of anti-CD3 antibodies. Binding of the anti-CD3 antibodies to the peptide/protein immobilized on the Luminex bead was detected by R-Phycoerythrin conjugated secondary antibody.
Recombinant CD3 proteins (human CD3d/e heterodimer and cynomolgus CD3-epsilon (Sinobiological)) and control peptides (#p1, #p2, and #p3) were conjugated to Luminex beads using standard EDC/Sulfo-NHS chemistry. […] The Luminex beads with immobilized peptides or reagents were incubated with 50 ul of a panel of anti-CD3 antibodies (1 ug/ml) for one hour at room temperature, washed two times, incubated with mixture of anti-human and anti-mouse IgG-RPE (Jackson Immunoresearch 109-116-097 and Southern Biotech 1030-09, respectively) for 30 mins at RT, washed three times, and analyzed in the Luminex instrument to assess the level of bound anti-CD3 antibodies.

[2] = target: T2, human CD3 epsilon (CD3ε) (human, UniProt P07766 23-207); assay: flow cytometry on human T cells
T2 construct: Present on donor human T cells as part of the TCR-CD3 complex; also called CD3ε on human T cells
Method: (§1) In these experiments, human or cynomolgus T cells were incubated with an anti-CD3ε antibody and binding was assessed by flow cytometry.
(§2) Briefly, donor T cells from either human or cynomolgus donors were resuspended in FACS buffer containing 0.1% sodium azide and aliquoted in 100 μL volumes. For incubation, 100 μL aliquots of donor T cells were mixed with 50 μL of antibodies diluted in FACS buffer containing 0.1% sodium azide. The cells were then washed twice with FACS buffer containing sodium azide. The bound antibody was detected by incubating cells for 60 minutes with a 1:200 dilution of SAV-RPE (Invitrogen Cat No. SA10044, Lot. 1542820A) or 1:100 dilution of goat-anti-Mouse Fcγ-RPE (Jackson Cat. No. 115-116-071, Lot. 108668, diluted in 0.2% goat serum). The cells were washed, fixed, and analyzed with an Accuri Flow Cytometer.
(§3) Treatment with OKT3, SP34-2, and diL2K antibodies were used as positive controls for T cell binding. […] Treatment with OKT3, SP34-2, and diL2K antibodies were used as controls for T cell binding with only SP34-2 binding to cynomolgus T cells, as expected.

[3] = target: T3, cynomolgus CD3-epsilon (cynomolgus, UniProt Q95LI5 22-198); assay: flow cytometry on cynomolgus T cells
T3 construct: whole, on cells; also called CD3ε on cynomolgus T cells / PBMCs
T3 sequence (Q95LI5 22-198): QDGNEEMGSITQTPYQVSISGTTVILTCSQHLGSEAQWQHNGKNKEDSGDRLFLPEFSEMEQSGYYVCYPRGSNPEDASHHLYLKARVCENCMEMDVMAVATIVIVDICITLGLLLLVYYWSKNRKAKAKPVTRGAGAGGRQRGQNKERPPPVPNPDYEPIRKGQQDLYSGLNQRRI
Method: as §1, §2, §3

[4] = target: T3, cynomolgus CD3-epsilon; assay: flow cytometry, three-colour staining (CD3/CD4/CD8) of cynomolgus PBMCs of three donors
Method: Cross-reactivity of anti-CD3ε antibodies to cynomolgus CD3-epsilon was assessed by three-color phenotyping (CD3/CD4/CD8) using PBMCs from three different cynomolgus donors.
PBMCs from different cynomolgus donors were stained with anti-CD4, anti-CD8, and a panel of different anti-CD3 antibodies. For each anti-CD3 antibody, the CD3 positive cells were gated and assessed for their CD4/CD8 phenotype. FIG. 8A depicts the total CD3 positive cells in PBMCs from the three different donors. FIGS. 8B-8E show the percentage of CD3 positive cells displaying CD4−/CD8+, CD4+/CD8−, CD4+/CD8+, and CD4−/CD8− phenotypes, respectively.

[5] = target: T4, AGS73.15 (MS497); assay: flow cytometry, blocking of AGS73.15 binding to CD3ε on human T cells, % binding, the axis reads nM
T4 construct: It carries a human IgG Fc (detected with anti-human IgG Fc)

[6] = target: T4, AGS73.15 (MS497); assay: flow cytometry, blocking of AGS73.15 (200 ng/ml) binding to CD3ε on human T cells; AGS73.15 detected with anti-human IgG Fc-PE

B1: 6d23 (antibody, V domains shown)
VH: QVQLVESGGGVVQPGRSLRLSCEASGFTFRSYGMHWVRQAPGKGLEWVAIIWYDGSNKYYGDSVKGRFTISRDNSKNTLSLQMNSLRAEDTAVYYCASLSVNDYYVLDVWGQGTTVTVSS
VL: DVVMTQSPFSLPVTLGQPASMSCRSSQSLVNSDGKTHLNWFQQRPGQSPRRLIYKVSNRDSGVPDRFSGSGSGTDFTLKISRVEAEDVGVYYCMQGTHWPLTFGGGTKVEIKR
notes: Anti-CD3ε antibody; also called 6d23.1; VCD3-6d23.1
B1: no binding (tested: 1 ug/ml) [1].

B2: 6d58 (antibody, V domains shown)
VH: QVHLVESGGGVVQPGRSLRLSCAASGFKFRSYGMHWVRQAPGKGLEWVAIIWYDGSKRYYADSVKGRFTISRDNSKNTLYLQMSSLRAEDTAVYYCARDLITGTTDYWGQGTLVTVSS
VL: DVVMTQSPLSLPVTLGQPASISCRSSRSLVYSDGNTHLIWFQQRPGQSPRRLIYRVSNRVSGVPDRFSGSGSGTDFTLKISRVEAEDVGVYYCLQGAHWPYTFGQGTKLEIKR
notes: also called 6d58 (same as 6d59)
B2 was tested, and the “EC50 (read off the curve)” value [2] was ~0.05 nM and the “EC50 (read off the curve)” value [3] was ~0.07 nM.

B3: 1c144.1 (antibody, V domains shown)
VH: ELQLVESGGGLVQPGGSLRLSCAASGFNFRSYEMNWVRQAPGKGLEWVSYISSSSTTIYYAGSVKGRFTISRDNAKHSLYLQMNSLRAEDTAVYYCARDRGALDYWGQGTLVTVSS
VL: DIQMTQSPSSLSASVGDRVTITCQASQDIRKYLNWYQQKPGKAPKLLIYDASNLETGVPSRFSGSGSGTDFSFTISSLQPEDLATYYCQHYANLPPLFTFGPGTKVDIKR
notes: the sheet prints 1c144.1
B3: binds [4].

B4: 6d59.id.1b67.1 (antibody, V domains shown)
VH: QVTLKESGPGILKPSQTLSLTCSFSGFSLSTSGMGVGWIRQPSGKGLEWLAHIWWDDDKFYKPSLKNRLTISKDTSRNQVFLKITSVDTADAATYFCVRRSAYEAFTLDYWGQGTSVTVSS
VL: DIMLTQSPASLAVSLGQRATISCKASQSVDYDGNGYLNWYQQKPGQPPKLLIYAASNLESGIPARFSGSGSGTDFTLNIHPVEEEDVATYYCQQSSEDPFTFGSGTKLEIKR
notes: Anti-idiotypic antibody against 6d59
For B4, the EC50 [5] was 0.56 nM and the “IC50 (read off the curve)” value [6] was ~0.08 µg/mL.

B5: 4b8 (antibody, V domains shown)
VH: EVQLVESGGGLVKPGGSLRLSCAASGFTFSSYSMNWVRQAPGKGLDWVSYISRSSNYTYYADSVMGRFTISRDNAKNSLYLQMNSLRAEDTAVYYCARDRRGYSGYNHFDYWGQGTLVTVSS
VL: DIQMTQSPSSLSASVGDRVTITCRASQSISNYLNWYQQKPGKAPKLLIYAASSLQSGVPSRFSGSRSGTDFTLTISSLQPEDFASYYCQQSFSTLYTFGQETKLEIKR
notes: Anti-CD3ε antibody
With B5 the “EC50 (read off the curve)” value [2] was 1 to 3 nM and the binding result [3] was “no binding”.

B6: 6d59.id.1b18.1 (antibody, V domains shown)
VH: DVLLQESGPGLVKPSQSLSLTCSVTGYSITSGHYWIWIRQFPGNKLEWMGYITYDGSNNYNPSLKKRISITRDTSENQFFLKLNPVTTEDTATYYCARDVADSYGNGYDAMDYWGQGTSVTVSS
VL: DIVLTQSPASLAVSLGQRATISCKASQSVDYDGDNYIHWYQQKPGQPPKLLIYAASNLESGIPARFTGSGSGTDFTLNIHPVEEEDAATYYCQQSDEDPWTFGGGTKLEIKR
notes: as for B4
With B6 the EC50 [5] was 0.443 nM and the “IC50 (read off the curve)” value [6] was ~0.07 µg/mL.

B7: 6d59.id.1b54.1 (antibody, V domains shown)
VH: DVQLQESGPGLVKPSQSLSLTCSVTGYSITSSYYWNWIRQFPGNKLEWMGSIMYDGNNNYNPSLKNRISITRDTSKNQFFLKLNSVTTEDTATYYCARNMADYFGNTYDALDYWGQGTSVTVSS
VL: DILLTQSPGSLAVSLGQRATISCKASQSADYGGDSYMSWYQQKPGQPPKLLIYAASNLESGTPARFSGSGSGTDFTLNIHPVEEEDAATYYCQQGNEDPWTFGGGTKLEIKR
notes: as for B4
B7 was tested, and the EC50 [5] was 0.413 nM and the “IC50 (read off the curve)” value [6] was ~0.07 µg/mL.

B8: 6d59.id.1b71.1 (antibody, V domains shown)
VL: B4 VL with M3V, L37M, V87A, S96N, F100Y, S104G
V domain: EVQLQQSGSELASPGTSVKLSCKASGYTFTSYWVQWIKQRPGQGLEWIGAIYPGDGDLRSTQKFKGKATLTADKSSDTAYMQLSSLASEDSAVYYCARLDDFDLDYWGQGTTLIVSS
notes: as for B4
For B8, the EC50 [5] was 0.327 nM and the “IC50 (read off the curve)” value [6] was ~0.06 µg/mL.

B9: 6d59.id.1b76.1 (antibody, V domains shown)
VH: DVKLVDSGGGLVKPGGSLKLSCAASGFTFSNYGMSWVRQTPEKRLEWVATISSGGYYTYYPDSVKGRFTISRDNAKNTLYLQMGSLKSEDTAMYYCSRDREGFGNYLGAMDYWGQGTSVTVSS
VL: B4 VL with M3V, L37M, V87A, S96N, F100Y, S104G
notes: as for B4
In the case of B9, the EC50 [5] is reported as 0.243 nM and the “IC50 (read off the curve)” value [6] is reported as ~0.05 µg/mL.

B10: 6d59.id.1b73.1 (antibody, V domains shown)
VH: QVQLQQSGPEVVKPGASVKMSCKASGYTFTDCVISWIKQRTGQGLEWIGEIHPGSGNTYNNEKFKGKATLTADKSSNTAYIQLSSLTSEDSAVYFCARVGDWYDDAMDYWGQGTSVTVSS
VL: B4 VL with M3V, L37M, V87A, S96N, F100Y, S104G
notes: as for B4
In the case of B10, the EC50 [5] is reported as 0.335 nM and the “IC50 (read off the curve)” value [6] is reported as ~0.05 µg/mL.

B11: 6d59.id.1b61.1 (antibody, V domains shown)
VH: B7 VH with S51Y
VL: B7 VL
notes: as for B4
With B11 the EC50 [5] was 0.368 nM and the “IC50 (read off the curve)” value [6] was ~0.06 µg/mL.

— patent US20230057263A1 (CYTOMX THERAPEUTICS, published 2023)
